Results: patent US20220356245A1 (FORTY SEVEN, published 2022)
Changes are numbered by the printed parent chain. Names and notes keep the numbering of the source. Where two headings read alike, the source gives them in different places. One block for each binder: values may come before it.

Assays:
[1] = molecular target: T1, human CD47 (hCD47) expressed on cells (human, UniProt Q08722 19-323); assay: cell-based or functional assay
[2] = molecular target: T1, human CD47 (hCD47) expressed on cells; assay: flow cytometry, Raji cells
Protocol: Raji cells (ATCC-CLL-86; 2×10⁵ cells/well of 96-well plate) were first incubated at +4° C. for 30 minutes with serial dilutions of anti-CD47 antibodies or control isotype antibody (in mIgG2a or mIgG1 format). The cells were then washed and incubated for 30 minutes at +4° C. with a PE-conjugated F(ab)′2 goat anti-mouse IgG antibody ( 1/100 dilution, Beckman Coulter). After washings, the fluorescence of the cells was analyzed by flow cytometry on an Accuri-C6 flow cytometer (BD Biosciences).
The delta of MFI, representing the difference between the intensity measured with the tested antibody and the intensity in the absence of antibody, was calculated for each antibody concentration and the values were plotted against the antibody concentrations. The EC50 values were then calculated by using a nonlinear regression analysis model of the GraphPad Prism software.

[3] = molecular target: T2, hu-sCD47-6His; extracellular domain of human CD47 antigen with 6His-tag (human); assay: SPR Biacore T200, antibody captured, hCD47-his analyte;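 also: antibodies captured on anti-IgG (Fc) CM5 chip, five sequential 10 min antigen injections at rising concentrations, reference flow cell and antigen-free cycle as controls, 1:1 model fit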
T2 construct: also called hCD47-his; soluble hCD47

[4] = molecular target: T1, human CD47 (hCD47) expressed on cells; assay: flow cytometry, hCD47-CHO cells, competition with His-hSIRPα
Protocol: Human CD47-transfected cells (3×10⁵ cells/well of 96-well plate) were first incubated at +4° C. for 30 minutes with serial dilutions of anti-CD47 antibodies or isotype control antibody (in mIgG2a or mIgG1 format). […] The percentage inhibition was plotted against antibody concentration and the IC50 values were calculated using a nonlinear regression analysis model of the GraphPad Prism software.

[5] = molecular target: T1, human CD47 (hCD47) expressed on cells; assay: flow cytometry, Raji cells, competition with His-hSIRPα
Protocol: The percent inhibition was plotted against antibody concentration and the IC50 values were calculated by using a nonlinear regression analysis model of the GraphPad Prism software.

[6] = molecular target: T2, hu-sCD47-6His; extracellular domain of …; assay: SPR Biacore
Description: (§1) An anti-human or anti-mouse IgG (Fc) was first immobilized on the surface of Serie S Sensor Chips CM5 using the human or mouse antibody capture and amine coupling kits, following the manufacturer's instructions (GE Healthcare). […] The mouse, chimerized or humanized antibodies to be tested were then captured onto the appropriate anti-mouse or anti-human IgG surface in all flow cells except flow cell 1 used as control, at concentration and contact time adjusted so that ˜300 RU were captured on the surface. Binding kinetics were studied by passing increasing concentrations of hCD47-his in a series of five 10 minute injections through all flow cells at a rate of 30 μL/min. […] Following the final injection, buffer was passed across each flow cell for 60 minutes (mouse) or 30 minutes (human) to monitor the dissociation of bound antigen. Regeneration of the binding surface was carried out at the end of the cycle by flowing 3 M MgCl₂ for 60 s at 20 μL/min followed by 10 mM glycine-HCl, pH 1.7 for 180 s at 10 μl/min (for human) or by flowing 10 mM glycine-HCl, ph 1.7 for 360 s at 10 μl/min (for mouse). A second cycle with the same antibodies but no antigen was run as a control. Kinetics binding constants were estimated by non-linear fitting of the sensogram data to the 1:1 binding model provided by the Biacore T200 evaluation software.

[7] = molecular target: T1, human CD47 (hCD47) expressed on cells; assay: flow cytometry, Raji cells; remark: listed apart in the source
[8] = molecular target: T1, human CD47 (hCD47) expressed on cells; assay: flow cytometry, Raji cells, competition with hSIRPα
[9] = molecular target: T1, human CD47 (hCD47) expressed on cells; assay: flow cytometry on Raji cells, hIgG4 format, delta MFI
[10] = molecular target: T1, human CD47 (hCD47) expressed on cells; assay: flow cytometry on Raji cells, hIgG4 format: inhibition of hSIRPα binding to hCD47
[11] = molecular target: T2, hu-sCD47-6His; extracellular domain of …; assay: SPR Biacore; remark: listed apart in the source
Description: as §1

[12] = molecular target: T1, human CD47 (hCD47) expressed on cells; assay: flow cytometry, Raji cells; remark: listed apart in the source
[13] = molecular target: T2, hu-sCD47-6His; extracellular domain of …; assay: SPR Biacore; head read as x 10^-4
Description: as §1

[14] = molecular target: T3, mouse CD47 (mCD47) expressed on CHO cells (mouse, UniProt Q61735 19-303); assay: flow cytometry, CHO-mCD47 cells (not shown)
T3 construct: whole, on cells; also called CHO-mCD47
T3 sequence (looked up): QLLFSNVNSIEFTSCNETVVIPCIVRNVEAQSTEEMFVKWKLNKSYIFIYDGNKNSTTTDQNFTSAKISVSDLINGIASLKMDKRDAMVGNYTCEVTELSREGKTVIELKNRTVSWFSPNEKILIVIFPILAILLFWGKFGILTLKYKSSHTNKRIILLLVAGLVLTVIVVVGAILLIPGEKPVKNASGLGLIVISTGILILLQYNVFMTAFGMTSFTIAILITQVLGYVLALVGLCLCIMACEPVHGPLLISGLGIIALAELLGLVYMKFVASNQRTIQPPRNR

[15] = molecular target: T1, human CD47 (hCD47) expressed on cells; assay: flow cytometry, Raji cells, competition with hSIRPα; remark: listed apart in the source
[16] = molecular target: T1, human CD47 (hCD47) expressed on cells; assay: flow cytometry on Raji cells, hIgG4 format, delta MFI; remark: listed apart in the source
[17] = molecular target: T1, human CD47 (hCD47) expressed on cells; assay: flow cytometry on Raji cells, hIgG4 format: inhibition of hSIRPα binding to hCD47; remark: listed apart in the source
[18] = molecular target: T2, hu-sCD47-6His; extracellular domain of …; assay: SPR Biacore; remark: listed apart in the source
Description: as §1

[19] = molecular target: T1, human CD47 (hCD47) expressed on cells; assay: flow cytometry, Raji cells; remark: listed apart in the source
[20] = molecular target: T1, human CD47 (hCD47) expressed on cells; assay: flow cytometry, Raji cells, competition with hSIRPα; remark: listed apart in the source
[21] = molecular target: T3, mouse CD47 (mCD47) expressed on CHO …; assay: flow cytometry, CHO-mCD47 cells

Phagocytic index, Raji cells and human macrophages, antibody at 0.125 µg/mL [1]: 78.9 Raji cells ingested per 100 macrophages
EC50 [2]: 0.055 µg/mL
Kd [3]: 3.85 nM
koff [3]: 0.00337 s⁻¹
kon [3]: 874000 M⁻¹ s⁻¹
IC50 [4]: 0.737 µg/mL
B1: Candidate 14 (VT008-AL6-14G1-16K1), mouse IgG (antibody, V domains shown)
VH: QVQLQQPGAELVKPGASLRVSCKASGYTFTNYWMYWVRQRPGRGLEWIGWIDPNSGGTKYNEKFKSKATLTVDKPSSTAYMQLSSLTSEDSAVYNCARGGYTMDYWGQGTSVTVSS
VL: DVVMTQTPLSLPVSLGDQASISCRASQSLVHSNGNTYLHWYLQKPGQSPKLLIYKVSNRFSGVPDRFSGSGSGTDFTLKISRVEAEDLGVYFCSQSTHVPLTFGAGTKLELK
notes: Recombinant mouse IgG2a or mIgG1 format, by assay

IC50 [5]: 0.11 µg/mL
B2: Candidate 20, chimeric hIgG format (hIgG1 or hIgG4) (antibody, V domains shown)
VH: QVQLKQSGAELVRPGASVKLSCKASGYSFTDYYINWVKQRPGQGLEWIARIYPGIGNTYYNKKFKGKATLTAEKSSSTAYMQLNSLTSEDSAVYFCARGHYGRGMDYWGQGTSVTVSS
VL: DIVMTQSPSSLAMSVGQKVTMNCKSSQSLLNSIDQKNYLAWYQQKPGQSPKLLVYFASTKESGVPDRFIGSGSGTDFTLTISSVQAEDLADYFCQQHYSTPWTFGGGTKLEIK
notes: also called Candidate 20 (hIgG format)

Phagocytic index, Raji cells and human macrophages, antibody at 0.125 µg/mL [1]: 113 Raji cells ingested per 100 macrophages
EC50 [2]: 0.058 µg/mL
Kd [3]: 0.127 nM
koff [3]: 4.99e-05 s⁻¹
kon [3]: 401000 M⁻¹ s⁻¹
IC50 [4]: 0.739 µg/mL
B3: 2A1 (mouse antibody from Inhibrx) (antibody, V domains shown)
VH: EVQLQQSGAELVRSGASVKLSCTASGFNIKDYYLHWVKQRPEQGLEWIGWIDPDNGDTEFAPKFQGKATMTADTSSNTAYLQLSSLTSEDTAVYYCNAAYGSSSYPMDYWGQGTSVTV
VL: DIKMTQSPSSLYASLGERVTITCKASQDIHRYLSWFQQKPGKSPKILIYRANRLVDGVPSRFSGSGSGQDYSLTISSLEYEDMGIYYCLQYDEFPYTFGGGTKLEMK

IC50 [5]: 0.233 µg/mL
B4: Candidate 22, chimeric hIgG format (hIgG1 or hIgG4) (antibody, V domains shown)
VH: QVQLQQPGAELVKPGASVKLSCKASGYTFTTYWMHWVKQRPGQGLEWIGMIHPNSGTTNYNEKFKSKATLTVDKSSSSTYMQLSSLTSEDSAVYYCTRSHYYDGHFSYWGQGTLVTVSA
VL: DIVMSQSPSSLAVSAGEKVTMSCKSSQSLLNSRTRKNYLAWYQQKPGQSPKLLIYWASTRESGVPDRFTGSGSGTDFTLTISSVQAEDLAVYYCKQSYNLWTFGGGTRLEIK
notes: also called Candidate 22 (hIgG format)

EC50 [2]: 0.301 µg/mL
B5: 5A3M3 (mouse antibody from Novimmune) (antibody, V domains shown)
VH: not shown
VL: DIQMTQSPSSLSASVGDRVTITCQASQSISSYLNWYQQKPGKAPKLLIYAASSLETGVPSRFSGSGSGTDFTFTISSLQPEDIATYYCQQKHPRGPRTFGQGTKVEIKR

IC50 [5]: 0.11 µg/mL
B6: Candidate 33, chimeric hIgG format (hIgG1 or hIgG4) (antibody, V domains shown)
VH: LVQLQQSGPELVKPGTSVKISCRSSGYTFTDYYINWVQQRPGQGLEWVGWIFPGSGLTYYNKKFKGKATLSVDKSSNTAYMLLSSLTSEDSAVYFCARPYYGSRWDYTMDYWGQGTSVTVSS
VL: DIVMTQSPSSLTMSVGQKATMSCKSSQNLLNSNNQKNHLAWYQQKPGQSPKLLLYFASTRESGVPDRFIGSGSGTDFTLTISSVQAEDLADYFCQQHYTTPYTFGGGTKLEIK
notes: also called Candidate 33 (hIgG format)

Kd [6]: 2.32 nM
koff [6]: 0.000573 s⁻¹
kon [6]: 264000 M⁻¹ s⁻¹
EC50 [7]: 0.117 µg/mL
IC50 [8]: 0.17 µg/mL
EC50 (read off the curve) [9]: ~0.1 µg/mL
IC50 (read off the curve) [10]: ~0.3 µg/mL
B7: h20-H3-L3Y (candidate 20.28), hIgG4-S228P (antibody, V domains shown)
VH: QVQLVQSGAEVKKPGASVKVSCKASGYSFTDYYINWVRQAPGQGLEWMGRIYPGIGNTYYNKKFKGRVTVTRDTSISTAHMELSSLRSDDTAVYYCARGHYGRGMDYWGQGTAVTVSS
VL: EIVLTQSPDSLAVSLGERATINCKSSQSLLNSIDQKNYLAWYQQKAGQSPKLLIYYASTKESGVPDRFSGSGSGTDFTLTIDSLQAEDVAVYYCQQHYSTPWTFGGGTKVEIKR
notes: also called H20-VH3-VL3,Y

Kd [11]: 3.05 nM
kon [11]: 214000 M⁻¹ s⁻¹
EC50 [12]: 0.147 µg/mL
koff [13]: 0.000594 s⁻¹
binding result [14]: no binding
IC50 [15]: 0.173 µg/mL
EC50 (read off the curve) [9]: ~0.08 µg/mL
IC50 (read off the curve) [10]: ~0.2 µg/mL
B8: h20-VH3-VL3 (candidate 20.13) (antibody, human IgG4 S228P, kappa, V domains shown)
VH: B7 VH
VL: B7 VL with Y56F
notes: hIgG4-S228P/kappa; also called h20-H3-L3

Kd [11]: 5.85 nM
kon [11]: 118000 M⁻¹ s⁻¹
EC50 [12]: 0.191 µg/mL
koff [13]: 0.000634 s⁻¹
binding result [14]: no binding
IC50 [15]: 0.051 µg/mL
EC50 (read off the curve) [16]: ~0.1 µg/mL
IC50 (read off the curve) [17]: ~0.2 µg/mL
B9: h20-VH2-VL5 (candidate 20.10) (antibody, human IgG4 S228P, kappa, V domains shown)
VH: B7 VH with V70I, I76A, H80Y, D89E, A113L
VL: B7 VL with E1D, L4M, A46P, S49P, Y56F, D82S, S83G, Y93F, K113R
notes: hIgG4-S228P/kappa; also called h20-H2-L5

Kd [18]: 10.9 nM
koff [18]: 0.000306 s⁻¹
kon [18]: 28400 M⁻¹ s⁻¹
EC50 [19]: 0.139 µg/mL
IC50 [20]: 0.096 µg/mL
B10: h22-VH3-VL3 (candidate 22.11) (antibody, human IgG4 S228P, kappa, V domains shown)
VH: QVQLQESGAEVKKPGASVKVSCKASGYTFTTYWMHWVRQAPGQGLEWMGMIHPNSGTTNYNEKFKSRVTMTRDTSTSTVYMELSSLRSEDTAVYYCTRSHYYDGHFSYWGQGTLVTVSS
VL: EIVLTQSPDSLAVSLGERATINCKSSQSLLNSRTRKNYLAWYQQKAGQSPKLLIYWASTRESGVPDRFSGSGSGTDFTLTIDSLQAEDVAVYYCKQSYNLWTFGGGTKVEIKR
notes: hIgG4-S228P/kappa

Kd [18]: 12.1 nM
koff [18]: 0.000351 s⁻¹
kon [18]: 29100 M⁻¹ s⁻¹
EC50 [19]: 0.124 µg/mL
IC50 [20]: 0.098 µg/mL
B11: h22-VH4-VL3 (candidate 22.15) (antibody, human IgG4 S228P, kappa, V domains shown)
VH: B10 VH with Q5V, E6Q, A24G, M70L, T76I, V79A, S85R, R87T, E89D, L114M
VL: B10 VL
notes: hIgG4-S228P/kappa

Kd [18]: 9.37 nM
koff [18]: 0.000263 s⁻¹
kon [18]: 28200 M⁻¹ s⁻¹
EC50 [19]: 0.184 µg/mL
IC50 [20]: 0.116 µg/mL
B12: h22-VH4-VL4 (candidate 22.16) (antibody, human IgG4 S228P, kappa, V domains shown)
VH: B10 VH with Q5V, E6Q, A24G, M70L, T76I, V79A, S85R, R87T, E89D, L114M
VL: DIVMTQSPDSLPVSLGERATINCKSSQSLLNSRTRKNYLAWYQQKPGQPPKLLIYWASTRESGVPDRFTGSGSGTDFTLTISALQAEDVAVYYCKQSYNLWTFGQGTRLEIKR
notes: hIgG4-S228P/kappa

Kd [18]: 10 nM
koff [18]: 0.000252 s⁻¹
kon [18]: 25200 M⁻¹ s⁻¹
EC50 [19]: 0.108 µg/mL
IC50 [20]: 0.116 µg/mL
B13: h22-VH3-VL4 (candidate 22.12) (antibody, human IgG4 S228P, kappa, V domains shown)
VH: B10 VH
VL: B12 VL
notes: hIgG4-S228P/kappa

Phagocytic index, Raji cells and human macrophages, antibody at 0.125 µg/mL [1]: 124 Raji cells ingested per 100 macrophages
EC50 [2]: 0.058 µg/mL
Kd [3]: 1.94 nM
koff [3]: 0.00037 s⁻¹
kon [3]: 190000 M⁻¹ s⁻¹
IC50 [4]: 0.657 µg/mL
B14: Candidate 7 (VT008-AL5-10G7-10K7), mouse IgG (antibody, V domains shown)
VH: QVQLQQPGAELVMPGSSVKLSCKTSGYTFTKYWMHWVKRRPGQGLEWIGEINPSDTYTNYNQKFKGKSTLTVDKSSSTAYMQLSSLTSEDSAVYFCARVATMVARGFAYWGQGTLVTVSA
VL: DIVMTQSHKFMSTSVGDRVSITCKASQDVSGAVVWYQEKPGQSPNLLIYLATYRYTGVPDRFTGSGSGTDFTLTIRSVQAEDMAVYYCQQYYSIPWTFGGGTKLEIK
binding result [21]: no binding (tested: 7.3 µg/mL highest concentration)
